In PMC10540216, “Activity Guided Azide-methyllysine Photo-trapping for Substrate Profiling of Lysine Demethylases” (Journal of the American Chemical Society, 2023):

B1: HNRPQ_HUMAN (protein, UniProt O60506 2-623, looked up)
Heterogeneous nuclear …: ATEHVNGNGTEEPMDTTSAVIHSENFQTLLDAGLPQKVAEKLDEIYVAGLVAHSDLDERAIEALKEFNEDGALAVLQQFKDSDLSHVQNKSAFLCGVMKTYRQREKQGTKVADSSKGPDEAKIKALLERTGYTLDVTTGQRKYGGPPPDSVYSGQQPSVGTEIFVGKIPRDLFEDELVPLFEKAGPIWDLRLMMDPLTGLNRGYAFVTFCTKEAAQEAVKLYNNHEIRSGKHIGVCISVANNRLFVGSIPKSKTKEQILEEFSKVTEGLTDVILYHQPDDKKKNRGFCFLEYEDHKTAAQARRRLMSGKVKVWGNVGTVEWADPIEDPDPEVMAKVKVLFVRNLANTVTEEILEKAFSQFGKLERVKKLKDYAFIHFDERDGAVKAMEEMNGKDLEGENIEIVFAKPPDQKRKERKAQRQAAKNQMYDDYYYYGPPHMPPPTRGRGRGGRGGYGYPPDYYGYEDYYDYYGYDYHNYRGGYEDPYYGYEDFQVGARGRGGRGARGAAPSRGRGAAPPRGRAGYSQRGGPGSARGVRGARGGAQQQRGRGVRGARGGRGGNVGGKRKADGYNQPDSKRRQTNNQNWGSQPIAQQPLQGGDHSGNYGYKSENQEFYQDTFGQQWK
B2: MPP6_HUMAN (protein, UniProt Q99547 1-160, looked up)
M-phase phosphoprotein 6: MAAERKTRLSKNLLRMKFMQRGLDSETKKQLEEEEKKIISEEHWYLDLPELKEKESFIIEEQSFLLCEDLLYGRMSFRGFNPEVEKLMLQMNAKHKAEEVEDETVELDVSDEEMARRYETLVGTIGKKFARKRDHANYEEDENGDITPIKAKKMFLKPQD
B3: PDC6I_HUMAN (protein, UniProt Q8WUM4 2-868, looked up)
Programmed cell death …: ATFISVQLKKTSEVDLAKPLVKFIQQTYPSGGEEQAQYCRAAEELSKLRRAAVGRPLDKHEGALETLLRYYDQICSIEPKFPFSENQICLTFTWKDAFDKGSLFGGSVKLALASLGYEKSCVLFNCAALASQIAAEQNLDNDEGLKIAAKHYQFASGAFLHIKETVLSALSREPTVDISPDTVGTLSLIMLAQAQEVFFLKATRDKMKDAIIAKLANQAADYFGDAFKQCQYKDTLPKEVFPVLAAKHCIMQANAEYHQSILAKQQKKFGEEIARLQHAAELIKTVASRYDEYVNVKDFSDKINRALAAAKKDNDFIYHDRVPDLKDLDPIGKATLVKSTPVNVPISQKFTDLFEKMVPVSVQQSLAAYNQRKADLVNRSIAQMREATTLANGVLASLNLPAAIEDVSGDTVPQSILTKSRSVIEQGGIQTVDQLIKELPELLQRNREILDESLRLLDEEEATDNDLRAKFKERWQRTPSNELYKPLRAEGTNFRTVLDKAVQADGQVKECYQSHRDTIVLLCKPEPELNAAIPSANPAKTMQGSEVVNVLKSLLSNLDEVKKEREGLENDLKSVNFDMTSKFLTALAQDGVINEEALSVTELDRVYGGLTTKVQESLKKQEGLLKNIQVSHQEFSKMKQSNNEANLREEVLKNLATAYDNFVELVANLKEGTKFYNELTEILVRFQNKCSDIVFARKTERDELLKDLQQSIAREPSAPSIPTPAYQSSPAGGHAPTPPTPAPRTMPPTKPQPPARPPPPVLPANRAPSATAPSPVGAGTAAPAPSQTPGSAPPPQAQGPPYPTYPGYPGYCQMPMPMGYNPYAYGQYNMPYPPVYHQSPGQAPYPGPQQPSYPFPQPPQQSYYPQQ
B4: CKAP4_HUMAN (protein, UniProt Q07065 1-602, looked up)
Cytoskeleton-associated …: MPSAKQRGSKGGHGAASPSEKGAHPSGGADDVAKKPPPAPQQPPPPPAPHPQQHPQQHPQNQAHGKGGHRGGGGGGGKSSSSSSASAAAAAAAASSSASCSRRLGRALNFLFYLALVAAAAFSGWCVHHVLEEVQQVRRSHQDFSRQREELGQGLQGVEQKVQSLQATFGTFESILRSSQHKQDLTEKAVKQGESEVSRISEVLQKLQNEILKDLSDGIHVVKDARERDFTSLENTVEERLTELTKSINDNIAIFTEVQKRSQKEINDMKAKVASLEESEGNKQDLKALKEAVKEIQTSAKSREWDMEALRSTLQTMESDIYTEVRELVSLKQEQQAFKEAADTERLALQALTEKLLRSEESVSRLPEEIRRLEEELRQLKSDSHGPKEDGGFRHSEAFEALQQKSQGLDSRLQHVEDGVLSMQVASARQTESLESLLSKSQEHEQRLAALQGRLEGLGSSEADQDGLASTVRSLGETQLVLYGDVEELKRSVGELPSTVESLQKVQEQVHTLLSQDQAQAARLPPQDFLDRLSSLDNLKASVSQVEADLKMLRTAVDSLVAYSVKIETNENNLESAKGLLDDLRNDLDRLFVKVEKIHEKV
B5: K1H1_HUMAN (protein, UniProt Q15323 1-416, looked up)
Keratin, type I cuticular Ha1: MPYNFCLPSLSCRTSCSSRPCVPPSCHSCTLPGACNIPANVSNCNWFCEGSFNGSEKETMQFLNDRLASYLEKVRQLERDNAELENLIRERSQQQEPLLCPSYQSYFKTIEELQQKILCTKSENARLVVQIDNAKLAADDFRTKYQTELSLRQLVESDINGLRRILDELTLCKSDLEAQVESLKEELLCLKSNHEQEVNTLRCQLGDRLNVEVDAAPTVDLNRVLNETRSQYEALVETNRREVEQWFTTQTEELNKQVVSSSEQLQSYQAEIIELRRTVNALEIELQAQHNLRDSLENTLTESEARYSSQLSQVQSLITNVESQLAEIRSDLERQNQEYQVLLDVRARLECEINTYRSLLESEDCNLPSNPCATTNACSKPIGPCLSNPCTSCVPPAPCTPCAPRPRCGPCNSFVR
B6: ACINU_HUMAN (protein, UniProt Q9UKV3 1-1341, looked up)
Apoptotic chromatin …: MWRRKHPRTSGGTRGVLSGNRGVEYGSGRGHLGTFEGRWRKLPKMPEAVGTDPSTSRKMAELEEVTLDGKPLQALRVTDLKAALEQRGLAKSGQKSALVKRLKGALMLENLQKHSTPHAAFQPNSQIGEEMSQNSFIKQYLEKQQELLRQRLEREAREAAELEEASAESEDEMIHPEGVASLLPPDFQSSLERPELELSRHSPRKSSSISEEKGDSDDEKPRKGERRSSRVRQARAAKLSEGSQPAEEEEDQETPSRNLRVRADRNLKTEEEEEEEEEEEEDDEEEEGDDEGQKSREAPILKEFKEEGEEIPRVKPEEMMDERPKTRSQEQEVLERGGRFTRSQEEARKSHLARQQQEKEMKTTSPLEEEEREIKSSQGLKEKSKSPSPPRLTEDRKKASLVALPEQTASEEETPPPLLTKEASSPPPHPQLHSEEEIEPMEGPAPAVLIQLSPPNTDADTRELLVSQHTVQLVGGLSPLSSPSDTKAESPAEKVPEESVLPLVQKSTLADYSAQKDLEPESDRSAQPLPLKIEELALAKGITEECLKQPSLEQKEGRRASHTLLPSHRLKQSADSSSSRSSSSSSSSSRSRSRSPDSSGSRSHSPLRSKQRDVAQARTHANPRGRPKMGSRSTSESRSRSRSRSRSASSNSRKSLSPGVSRDSSTSYTETKDPSSGQEVATPPVPQLQVCEPKERTSTSSSSVQARRLSQPESAEKHVTQRLQPERGSPKKCEAEEAEPPAATQPQTSETQTSHLPESERIHHTVEEKEEVTMDTSENRPENDVPEPPMPIADQVSNDDRPEGSVEDEEKKESSLPKSFKRKISVVSATKGVPAGNSDTEGGQPGRKRRWGASTATTQKKPSISITTESLKSLIPDIKPLAGQEAVVDLHADDSRISEDETERNGDDGTHDKGLKICRTVTQVVPAEGQENGQREEEEEEKEPEAEPPVPPQVSVEVALPPPAEHEVKKVTLGDTLTRRSISQQKSGVSITIDDPVRTAQVPSPPRGKISNIVHISNLVRPFTLGQLKELLGRTGTLVEEAFWIDKIKSHCFVTYSTVEEAVATRTALHGVKWPQSNPKFLCADYAEQDELDYHRGLLVDRPSETKTEEQGIPRPLHPPPPPPVQPPQHPRAEQREQERAVREQWAEREREMERRERTRSEREWDRDKVREGPRSRSRSRDRRRKERAKSKEKKSEKKEKAQEEPPAKLLDDLFRKTKAAPCIYWLPLTDSQIVQKEAERAERAKEREKRRKEQEEEEQKEREKEAERERNRQLEREKRREHSRERDRERERERERDRGDRDRDRERDRERGRERDRRDTKRHSRSRSRSTPVRDRGGRR
B7: NONO_HUMAN (protein, UniProt Q15233 1-471, looked up)
Non-POU domain-containing …: MQSNKTFNLEKQNHTPRKHHQHHHQQQHHQQQQQQPPPPPIPANGQQASSQNEGLTIDLKNFRKPGEKTFTQRSRLFVGNLPPDITEEEMRKLFEKYGKAGEVFIHKDKGFGFIRLETRTLAEIAKVELDNMPLRGKQLRVRFACHSASLTVRNLPQYVSNELLEEAFSVFGQVERAVVIVDDRGRPSGKGIVEFSGKPAARKALDRCSEGSFLLTTFPRPVTVEPMDQLDDEEGLPEKLVIKNQQFHKEREQPPRFAQPGSFEYEYAMRWKALIEMEKQQQDQVDRNIKEAREKLEMEMEAARHEHQVMLMRQDLMRRQEELRRMEELHNQEVQKRKQLELRQEEERRRREEEMRRQQEEMMRRQQEGFKGTFPDAREQEIRMGQMAMGGAMGINNRGAMPPAPVPAGTPAPPGPATMMPDGTLGLTPPTTERFGQAATMEGIGAIGGTPPAFNRAAPGAEFAPNKRRRY
B8: KT33A_HUMAN (protein, UniProt O76009 1-404, looked up)
Keratin, type I cuticular …: MSYSCGLPSLSCRTSCSSRPCVPPSCHGCTLPGACNIPANVSNCNWFCEGSFNGSEKETMQFLNDRLASYLEKVRQLERDNAELENLIRERSQQQEPLVCASYQSYFKTIEELQQKILCSKSENARLVVQIDNAKLASDDFRTKYETELSLRQLVESDINGLRRILDELTLCRSDLEAQVESLKEELLCLKQNHEQEVNTLRCQLGDRLNVEVDAAPTVDLNQVLNETRSQYEALVETNRREVEQWFATQTEELNKQVVSSSEQLQSYQAEIIELRRTVNALEIELQAQHNLRDSLENTLTESEARYSSQLSQVQRLITNVESQLAEIRSDLERQNQEYQVLLDVRARLECEINTYRSLLESEDCKLPSNPCATTNACDKSTGPCISNPCGLRARCGPCNTFGY
B9: ADAS_HUMAN (protein, UniProt O00116 59-658, looked up)
Alkyldihydroxyacetonephosphate …: KARRAASAATAAPTATPAAQESGTIPKKRQEVMKWNGWGYNDSKFIFNKKGQIELTGKRYPLSGMGLPTFKEWIQNTLGVNVEHKTTSKASLNPSDTPPSVVNEDFLHDLKETNISYSQEADDRVFRAHGHCLHEIFLLREGMFERIPDIVLWPTCHDDVVKIVNLACKYNLCIIPIGGGTSVSYGLMCPADETRTIISLDTSQMNRILWVDENNLTAHVEAGITGQELERQLKESGYCTGHEPDSLEFSTVGGWVSTRASGMKKNIYGNIEDLVVHIKMVTPRGIIEKSCQGPRMSTGPDIHHFIMGSEGTLGVITEATIKIRPVPEYQKYGSVAFPNFEQGVACLREIAKQRCAPASIRLMDNKQFQFGHALKPQVSSIFTSFLDGLKKFYITKFKGFDPNQLSVATLLFEGDREKVLQHEKQVYDIAAKFGGLAAGEDNGQRGYLLTYVIAYIRDLALEYYVLGESFETSAPWDRVVDLCRNVKERITRECKEKGVQFAPFSTCRVTQTYDAGACIYFYFAFNYRGISDPLTVFEQTEAAAREEILANGGSLSHHHGVGKLRKQWLKESISDVGFGMLKSVKEYVDPNNIFGNRNLL

System: KDM4A-I71AzF
Experiment: CASI: photo-crosslinking with HEK293T cell extracts, StrepTactin enrichment and LC-MS/MS proteomics;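 note: lysates from HEK293T cells pretreated with a KDM4 inhibitor to raise proteome methylation, affinity-purified after ±UV, gel-resolved, trypsin-digested, with exclusive unique peptides per protein averaged per condition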
Format: binding, human
Details: sheet "Final results but with 0.01"

Row | Molecule | Fold change (+UV/-UV)
1 | B1 | 200
2 | B2 | 200
3 | B3 | 200
4 | B4 | 200
5 | B5 | 800
6 | B6 | 2
7 | B7 | 1.778
8 | B8 | 300
9 | B9 | 200
